According to patent publication US20220177587A1, “METHODS AND USES OF VARIANT CD80 FUSION PROTEINS AND RELATED CONSTRUCTS” (Alpine Immune Sciences, Inc., priority 2018, published 2022):
Each block holds one molecule with its values, some of them ahead of it.

Tests used:
CD28 = CD28 (Homo sapiens, UniProt P10747); assay: Flow binding to Jurkat/IL2 reporter cells (CD28); set-up: host or cells: Jurkat cells expressing an IL-2-luciferase reporter
Protocol: Binding of selected immunomodulatory fusion proteins to cognate binding partners was assessed. […] Cells were sorted in a Bio-Rad S3 Cell Sorter (Bio-Rad Corp., USA) to >98% purity. Jurkat/IL2 reporter cells, which endogenously express CD28, were used to detect binding to CD28.
For staining and analysis by flow cytometry, 100,000 cells of appropriate transfected cells were plated in 96-well round bottom plates. Cells were spun down and resuspended in staining buffer (phosphate buffered saline (PBS), 1% bovine serum albumin (BSA), and 0.1% sodium azide) for 20 minutes to block non-specific binding. […] Primary staining was performed on ice for 45 minutes, before washing cells in staining buffer twice. Phycoerythrin (PE)-conjugated anti-human Fc (Jackson ImmunoResearch, USA) was diluted 1:150, added to cells and incubated another 30 minutes on ice. Cells were then washed twice with 150 μL/well stain buffer, fixed in 2% formaldehyde/PBS, and analyzed on Intellicyt flow cytometer (Intellicyt Corp., USA). PE Mean Fluorescence Intensity (MFI) was calculated for each cell type with FlowJo Version 10 software (FlowJo LLC, USA).
Binding assays were carried out to assess the specificity and affinity of multivalent proteins to cell-expressed CTLA-4, CD28, and PD-L1 counter structures.
The EC50 for binding also was determined.

huCTLA4 = huCTLA4 (Homo sapiens, UniProt P16410); assay: Flow binding to CHO cells stably expressing CTLA4; set-up: huCTLA4 and huPD-L1, full-length mammalian surface expression constructs were generated; expressed in transfected cells; host or cells: CHO cells, lentiviral transduction, sorted to >98% purity; conditions: for CTLA4 MFI at 33.3 nM: CHO cells stably expressing CTLA4
Procedure, shortened: (§1)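 Cells were first blocked in PBS with 1% BSA and 0.1% sodium azide. Primary staining with fusion protein ran 45 min on ice, and secondary staining with PE anti-human Fc at 1:150 ran 30 min on ice.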

huPD-L1 = huPD-L1 (Homo sapiens, UniProt Q9NZQ7); assay: Flow binding to CHO cells stably expressing PD-L1; set-up: huCTLA4 and huPD-L1, full-length mammalian surface expression constructs were generated; expressed in transfected cells; host or cells: CHO cells, lentiviral transduction, sorted to >98% purity; conditions: for PD-L1 MFI at 33.3 nM: CHO cells stably expressing PD-L1
Procedure, shortened: as §1

[1] = Table E4, MFI ratio to WT CD80 ECD-Fc (R&D) at 33.3 nM
[2] = Table E19, Jurkats (CD28), 33.3 nM
[3] = Table E11, 33.3 nM, listed as WT CD80 ECD-Fc = 1.0
[4] = Table E11, Jurkats (CD28), 33.3 nM

Chain of huCTLA4 (P16410 36-223): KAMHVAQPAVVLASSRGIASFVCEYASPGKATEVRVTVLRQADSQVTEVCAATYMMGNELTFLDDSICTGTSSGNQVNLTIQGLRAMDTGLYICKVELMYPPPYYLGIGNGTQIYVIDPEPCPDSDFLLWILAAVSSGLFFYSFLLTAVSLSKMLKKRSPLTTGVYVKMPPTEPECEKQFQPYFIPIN
Chain of huPD-L1 (Q9NZQ7 19-290): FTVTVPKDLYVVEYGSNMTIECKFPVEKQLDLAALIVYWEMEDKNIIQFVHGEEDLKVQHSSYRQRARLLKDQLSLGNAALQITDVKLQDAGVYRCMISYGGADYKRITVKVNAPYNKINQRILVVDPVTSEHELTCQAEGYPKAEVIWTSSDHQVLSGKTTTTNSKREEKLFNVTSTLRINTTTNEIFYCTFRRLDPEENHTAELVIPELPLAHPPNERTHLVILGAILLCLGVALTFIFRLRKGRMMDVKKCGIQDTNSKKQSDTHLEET

B1: E35D/L85Q/K93I/E95V/L97Q (protein)
chain: VIHVTKEVKEVATLSCGHNVSVEELAQTRIYWQKDKKMVLTMMSGDMNIWPEYKNRTIFDITNNLSIVILALRPSDEGTYECVVQKYEKDAFTRVHQAEVTLSVKAD
CD28 MFI at 33.3 nM (CD28; Table E4, 33.3 nM, Jurkat cells (CD28)): 400
CD28 Fold change to WT CD80 (CD28; [1]): 0.02
CTLA4 MFI at 33.3 nM (huCTLA4; Table E4, 33.3 nM variant CD80 IgV-Fc): 246401
CTLA4 Fold change to WT CD80 (huCTLA4; [1]): 1.57
PD-L1 MFI at 33.3 nM (huPD-L1; Table E4, 33.3 nM): 19880
PD-L1 Fold change to WT CD80 (huPD-L1; [1]): 1.67
Ratio of PDL1:CD28 (huPD-L1; Table E4, binding to PD-L1 compared to binding to CD28): 50

B2: E35D/M47L/V68M/L85Q (protein)
chain: VIHVTKEVKEVATLSCGHNVSVEELAQTRIYWQKDKKMVLTMMSGDLNIWPEYKNRTIFDITNNLSIMILALRPSDEGTYECVVQKYEKDAFKREHLAEVTLSVKAD
CD28 MFI at 33.3 nM (CD28; [2]): 159
CTLA4 MFI at 33.3 nM (huCTLA4; Table E19, 33.3 nM): 28106
PD-L1 MFI at 33.3 nM (huPD-L1; Table E19, 33.3 nM): 15307

B4: E35D/M47V/N48KN68M/L85M (protein)
chain: VIHVTKEVKEVATLSCGHNVSVEELAQTRIYWQKDKKMVLTMMSGDVKIWPEYKNRTIFDITNNLSIMILALRPSDEGTYECVVMKYEKDAFKREHLAEVTLSVKAD
CD28 Fold change to WT CD80 (CD28; [3]): 7.8
CD28 MFI at 33.3 nM (CD28; [4]): 245
CTLA4 Fold change to WT CD80 (huCTLA4; [3]): 8.9
CTLA4 MFI at 33.3 nM (huCTLA4; Table E11, 33.3 nM): 15581
PD-L1 Fold change to WT CD80 (huPD-L1; [3]): 147.9
PD-L1 MFI at 33.3 nM (huPD-L1; Table E11, 33.3 nM): 7618
Ratio of PDL1:CD28 (huPD-L1; Table E11, MFI at 33.3 nM): 31.1

B6: M47L/V68M/L85Q (protein)
chain: VIHVTKEVKEVATLSCGHNVSVEELAQTRIYWQKEKKMVLTMMSGDLNIWPEYKNRTIFDITNNLSIMILALRPSDEGTYECVVQKYEKDAFKREHLAEVTLSVKAD
CD28 MFI at 33.3 nM (CD28; [2]): 60.9
CTLA4 MFI at 33.3 nM (huCTLA4; Table E19, 33.3 nM): 11134
PD-L1 MFI at 33.3 nM (huPD-L1; Table E19, 33.3 nM): 4039

Other lines, results leading:

CD28 MFI at 33.3 nM (CD28; [2]): 413
CTLA4 MFI at 33.3 nM (huCTLA4; Table E19, 33.3 nM): 44640
PD-L1 MFI at 33.3 nM (huPD-L1; Table E19, 33.3 nM): 3083
B3: M47V/N48K (protein)
chain: VIHVTKEVKEVATLSCGHNVSVEELAQTRIYWQKEKKMVLTMMSGDVKIWPEYKNRTIFDITNNLSIVILALRPSDEGTYECVVLKYEKDAFKREHLAEVTLSVKAD

CD28 Fold change to WT CD80 (CD28; [3]): 9.6
CD28 MFI at 33.3 nM (CD28; [4]): 302
CTLA4 Fold change to WT CD80 (huCTLA4; [3]): 9.5
CTLA4 MFI at 33.3 nM (huCTLA4; Table E11, 33.3 nM): 16604
PD-L1 Fold change to WT CD80 (huPD-L1; [3]): 442.1
PD-L1 MFI at 33.3 nM (huPD-L1; Table E11, 33.3 nM): 22770
Ratio of PDL1:CD28 (huPD-L1; Table E11, MFI at 33.3 nM): 75.4
B5: E35D/M47V/N48KN68M/A71G/L85M (protein)
chain: VIHVTKEVKEVATLSCGHNVSVEELAQTRIYWQKDKKMVLTMMSGDVKIWPEYKNRTIFDITNNLSIMILGLRPSDEGTYECVVMKYEKDAFKREHLAEVTLSVKAD

CD28 MFI at 33.3 nM (CD28; [2]): 60.1
CTLA4 MFI at 33.3 nM (huCTLA4; Table E19, 33.3 nM): 4952
PD-L1 MFI at 33.3 nM (huPD-L1; Table E19, 33.3 nM): 481
B7: N48K (protein)
chain: VIHVTKEVKEVATLSCGHNVSVEELAQTRIYWQKEKKMVLTMMSGDMKIWPEYKNRTIFDITNNLSIVILALRPSDEGTYECVVLKYEKDAFKREHLAEVTLSVKAD

CD28 MFI at 33.3 nM (CD28; [2]): 37.9
CTLA4 MFI at 33.3 nM (huCTLA4; Table E19, 33.3 nM): 568
PD-L1 MFI at 33.3 nM (huPD-L1; Table E19, 33.3 nM): 118
B8: V68M (protein)
chain: VIHVTKEVKEVATLSCGHNVSVEELAQTRIYWQKEKKMVLTMMSGDMNIWPEYKNRTIFDITNNLSIMILALRPSDEGTYECVVLKYEKDAFKREHLAEVTLSVKAD

CD28 MFI at 33.3 nM (CD28; [2]): 91.7
CTLA4 MFI at 33.3 nM (huCTLA4; Table E19, 33.3 nM): 3288
PD-L1 MFI at 33.3 nM (huPD-L1; Table E19, 33.3 nM): 347
B9: V68M/L85Q (protein)
chain: VIHVTKEVKEVATLSCGHNVSVEELAQTRIYWQKEKKMVLTMMSGDMNIWPEYKNRTIFDITNNLSIMILALRPSDEGTYECVVQKYEKDAFKREHLAEVTLSVKAD
